Results from the DeepSol protein solubility set.

assay: soluble on expression in E. coli; label from the status in PepcDB or PDB records

Sequence	soluble on expression in E. coli
MSLRDQFQLAIRVADLLQHITQMKRGQGYGFKEEYEALPEGQTASWDTAKEDENRNKNRYGNIISYDHSRVRLLVLDGDPHSDYINANYIDGYHRPRHYIATQGPMQETVKDFWRMIWQENSASIVMVTNLVEVGRVKCVRYWPDDTEVYGDIKVTLIETEPLAEYVIRTFTVQKKGYHEIRELRLFHFTSWPDHGVPCYATGLLGFVRQVKFLNPPEAGPIVVHCSAGAGRTGCFIAIDTMLDMAENERVVDIFNCVRELRAQRVNLVQTEEQYVFVHDAILEACLCGNTAIPVCEFRSLYYNISRLDPQTNSSQIKDEFQTLNIVTPRVRPEDCSIGLLPRNHDKNRSMDVLPLDRCLPFLISVDGESSNYINAALMDSHKQPAAFVVTQHPLPNTVADFWRLVFDYNCSSVVMLNEMDTAQFCMQYWPEKTSGCYGPIQVEFVSADIDEDIIHRIFRICNMARPQDGYRIVQHLQYIGWPAYRDTPPSKRSLLKVVRRLEKWQEQYDGREGRTVVHCLNGGGRSGTFCAICSVCEMIQQQNIIDVFHIVKTLRNNKSNMVETLEQYKFVYEVALEYLSSFEGHHHHHH	soluble
MAELACFCYPHLENDSYKFIPFNNLAIKAMLTAKVDKKDMDKFYDSIIYGIAPPPQFKKRYNTNDNSRGMNFETIMFTKVAMLICEALNSLKVTQANVSNVLSRVVSIRHLENLVIRKENPQDILFHSKDLLLKSTLIAIGQSKEIETTITAEGGEIVFQNAAFTMWKLTYLEHQLMPILDQNFIEYKVTLNEDKPISDVHVKELVAELRWQYNKFAVITHGKGHYRIVKYSSVANHADRVYATFKSNVKTGVNNDFNLLDQRIIWQNWYAFTSSMKQGNTLDVCKRLLFQKMKPEKNPFKGLSTDRKMDEVSQVGV	soluble
MRYLIATAVLVAVVLVGWPAAGAPPSCAGLGGTVQAGQICHVHASGPKYMLDMTFPVDYPDQQALTDYITQNRDGFVNVAQGSPLRDQPYQMDATSEQHSSGQPPQATRSVVLKFFQDLGGAHPSTWYKAFNYNLATSQPITFDTLFVPGTTPLDSIYPIVQRELARQTGFGAAILPSTGLDPAHYQNFAITDDSLIFYFAQGELLPSFVGACQAQVPRSAIPPLAI	soluble
MAHHHHHHMHDIYLDNPSTFEILEKMFSLYVNTYPDNELPIGFILMGDFISLKFDYNKNFNDLYIKGFEKLSVLLISKFKLILQNCYLIFIPGKNDPCACKNSIPKMPILPYYIKKFEQNIQSFFSCKKKIIFATNPCRIRHFNKKMIFFRQDILNDLIWSSSINATDDNKNNLQDILISTIVGQSHIYPIPHDNRILKRYSSFLFLYPLPNFICISDNTCNSFISYASDNTSDSIISNSDLSFTKKKTFTVYNVLQHDAKRYVVPI	not soluble
MSLNLREFKEFIDNEMIVILGQMDSPTQIFEHVFLGSEWNASNLEDLQNRGVRYILNVTREIDNFFPGVFEYHNIRVYDEEATDLLAYWNDTYKFISKAKKHGSKCLVHCKMGVSRSASTVIAYAMKEYGWNLDRAYDYVKERRTVTKPNPSFMRQLEEYQGILLASKEGHHHHHH	not soluble
MSLEYAKSLFERHLDIASKFRPKNPYLKTAYMNVLLSLTQTICQSPQELSNDDLSDAGAALAYLREAGFELDWLEKKLNEVKEKKKKEEACLAEIQDMDEHVKPLKKKYLDLEAQIDKKKAELLAARAPLSLNDDNVVSMFCDSAETQQWFDKNAPDWGFTEMISLTELHAEEGLLRNGELTVVAKVEVLEVVGKLDVSEESSPVIETIDVNGFQVLPSEGHHHHHH	soluble
MHHHHHHSSGVDLGTENLYFQSMTLESMNPQVKAVEYAVRGPIVLKAGEIELELQRGIKKPFTEVIRANIGDAQAMGQQPITFLRQVMALCTYPNLLDSPSFPEDAKKRARRILQACGGNSLGSYSASQGVNCIREDVAAYITRRDGGVPADPDNIYLTTGASDGISTILKILVSGGGKSRTGVMIPIPQYPLYSAVISELDAIQVNYYLDEENCWALNVNELRRAVQEAKDHCDPKVLCIINPGNPTGQVQSRKCIEDVIHFAWEEKLFLLADEVYQDNVYSPDCRFHSFKKVLYEMGPEYSSNVELASFHSTSKGYMGECGYRGGYMEVINLHPEIKGQLVKLLSVRLCPPVSGQAAMDIVVNPPVAGEESFEQFSREKESVLGNLAKKAKLTEDLFNQVPGIHCNPLQGAMYAFPRIFIPAKAVEAAQAHQMAPDMFYCMKLLEETGICVVPGSGFGQREGTYHFRMTILPPVEKLKTVLQKVKDFHINFLEKYA	soluble
MFLPKFNPIRSFSPILRAKTLLRYQNRMYLSTEIRKAIEDAIESAPVVLFMKGTPEFPKCGFSRATIGLLGNQGVDPAKFAAYNVLEDPELREGIKEFSEWPTIPQLYVNKEFIGGCDVITSMARSGELADLLEEAQALVPEEEEETKDR	soluble
MSEHVFETEQVYPALGKVEIAPEVIEVIAGIAASEVDGIAQMRGNFAAGVAERFGKKHHGKGVKVDLRDDGVVIDLYCLVQFGASIPNVAKKVQENVRQALWNMTGLEASEVNVHIVGIQFEGGKQEQGVVEQ	not soluble
MSAGPIVERNQDATIYVGGLDEKVSESILWELMVQAGPVVSVNMPKDRVTANHQGFGFVEFMGEEDADYAIKILNMIKLYGKPIKVNKASAHEKNMDVGANIFVGNLDPEVDEKLLYDTFSAFGVILQVPKIMRDVDSGTSKGFAFINFASFEASDTALEAMNGQFLCNRAITVSYAFKRDSKGERHGTAAERMLAAQNPLFPKDRPHQVFSDVPLGVPANTPLAMPGVHAAIAAHATGRPGYQPPPLMGMAQSGYQGQYPPVPPPPPSVTPMPPPMPPTPGMTPRPPPPPSSGMWPPPPPPPPGRTPGPPGMPGMPPPPPPSRFGPPGMGGMPPPPPPGMRYPGGMPPPPPPRYPSAGPGMYPPPPPSRPPAPPSGHGMIPPPPPPS	not soluble
MGSDKIHHHHHHMKSLIHCLFLIPLFFVQAHAEVTITLPDSAEPLLLNGKDITSHQLISQNGPQQLVFNARASYREFGQQKRFVSETLIVTFSGENNHYRVSLPKISSPKSAEKFNDVPQIGLTDTQGNKVAYKIDKLLKDGIQIGRNYSEEIKAYNIGQGVAAIAINQPVQMAPSTSSSASSGAASPAATSTALAAQQTTAPQGAQPVGQPTSQPNTQPVSQTGTPRRDQINVGQMLDFWYEQADEATREAFKKRIGLIEQAQRDGH	not soluble
MNFENDDIIHAPTTSSLILEERHDSELFRVYALILDGITDQVLLPGKKLTESELCRQMVCSRNTVRGALSLLAHDKIVDLQPNRGAFVHVPDLKEMQDVFNARIEMETMILNILADLPDLETRLKPLYAMIRREEEASGRGDRVGWNRLSNAFHVELARLVGNDVLFDIMNTLCARSSLIVAVAGVHREEKHAINTHTHSEHREILDLLLAGRRNRVVKILRRHLGNCMERLEKTLED	not soluble
MGHHHHHHSHDQLDRAGVAAVALSGGEPTIHPHFLRIVKELSSRGIHTSVATNGWTFADKEKLEEAVKAGLKYVEISVDSAKPEKHDEFRGIPGAWERAIKALENAVEIGVSHGMAVIMDKETYQEMDDILDLAESIGVKRVIFFNLVPTGRAEDMVKVDLTPEEREEFLKELYHQMKKRKLEILTTAPQYARVTLIESQGKNVSPAHFYVGQNTAVKTLAEFIGGCGAGRIYAGIEPDGTVVPCVFL	not soluble
MTLNLSVDEVLTTTRSVRKRLDFDKPVPRDVLMECLELALQAPTGSNSQGWQWVFVEDAAKKKAIADVYLANARGYLSGPAPEYPDGDTRGERMGRVRDSATYLAEHMHRAPVLLIPCLKGREDESAVGGVSFWASLFPAVWSFCLALRSRGLGSCWTTLHLLDNGEHKVADVLGIPYDEYSQGGLLPIAYTQGIDFRPAKRLPAESVTHWNGW	soluble
MAAAGEEYSSDKIEERSLAAIDSMIDPDISGPMRHIVVKAIHAAGDFAIAPLIRYSDGFFKSMLAKLKEGCTIICDSEMVRAGIYSRPVLERNRVVCYLNDVRSKEMADVNGITRSAAGIRIAMQDHRNSVIVIGNAPTALLEAMRMIEENGWYDIPIVGIPVGFINASKAKEGLVSSHIEYISVEGHRGGSPIAASIVNGFGRFLA	soluble
MGSDKIHHHHHHMEKTMDRIYKIGGHCFALPDERLMEAVDGISGFKPFVWQPDLVSAKDVYEGAWLPDFTVWEGNGWGFPAFQRKSYGFGYEDVTGTFGVSGDSFLLELAPQGEPSLYLRTMGGTGRGICLYGNYSPRLLRFALWMGYGLMTVRKDTVALHGSCIVYKGKAVLFLGESGTGKSTHTRLWRENIAGSKLLNDDSPIVRYEEGGVWVYGSPWSGKTPCYKAERYPLAGCVRLSQAPYNKIRRLNTLQAYAALHPSAPPAFAYEEELYCGVCSLLEKMVSSIPVYHLECLPDAEAVKLVCRTLYGDGYEADSE	not soluble
MGSDKIHHHHHHMLSIAIAAEFELSEKIVETLEQTQLEIESLTIIEIKPFKEEQGIRFNNKAVVQIMPEEADWTEFNYVLFAGTIEHVDLLAKIADSGCIVIDVLGICASLANIPVVVPGINDDQLIELRQRNIVSLPNPQVTQCALAISNIVNSIHQLVVTSLLPASYVEAEQVAKLAGQTAQLLNGIPLDTEQQRLAFDVFPVQTQNLVIQLQKIYPQLENIVFHQIQVPVFYGMGQFVTALSDYLVDIESQLHFWQENELIQYHAEKLITPVTHGENENNEEKVKLHISTLSAAENKIEFWSVADEQHFNLALMAVKLLELIG	not soluble
MGKGAMNRRDFLKVGGMSTLALTLGSTGLFSLEGQAKNSSNPTSGFGGFGPLVKDPNGILDLPKGFKYKILSRTGDRMTNGDLVPSMHDGMAAFQGPRNTTILVRNHENGTNADYPVNGKNPWSKGAAGGTTALVVGPNREVIREYVTNSGNIRNCAGGPSTWGTWLTCEETRDMGHGFVFEVNPHEPENEMSKTPIRDMGYFSHEACNVDPSTGIWYLTEDNSPSFFYRFTPHDRSQTLGSLQKGGILEAAAIDELPHNQASNFTSGQKIGIVWKKVNPERAKEDARDLGCIRFSRLEGSWFAGGAFWFDDTNAGEKNLGRIYRYFPATNTLELFYESSDHNDLEMPDNITITPWGDLWIAEDGNIGRDRMIGLTPEGNVYTFAENRLNNSEFAGPAFSPDGKTFYLNMQTPGITFAIWGPFARRNAARQVAMSHAAPPPGYGPQVSDKLADYAERHGMSPLAAAALERHGFIVLEHHHHHH	not soluble
MGSDKIHHHHHHMSDLDRATLLDATGVAKSFGAVRALTDASLHVGAGEVVALMGANGAGKSTFVKILTGALRPDAGRVLIRGEVARTGSPAQARRSGLVPVYQEPSLIPDLDVADNLRLGDTPSDAVLHWMNELGINGLRFDDMISDLPLATLRILDLARALASQPDVLLLDEMTAALPTNLVENVLRVVRAQADAGCGVIYISHRFTEIAELCDSATILRDGRTVGDLQIEPGVENRCVELMLGAKLSLDKRDAGALRQNTGVPRLRASQIAVAPTVSDVSFDLYPGEVLGVVALEGQGQDEVFNVLSGHQKPTGGALQVDGTSVSFSHPADAIAAGLSYVPGDRAEALLRERSVRENIALPFSARLRDWGPLKTRHERHRVDHAIEKLQIDTRAQGEVQRLSGGNQQKVTIGRWLAHGVRTLLLFDPTRGIDVRTKRQIYPLVRELAEQGAAVLFYTSELDEIPLACDRAIVIFNGRVVNVVNAADATEEVLMRAAYGLTDVSAAS	not soluble
MEANTSSSGTVTGQRFAERRRSLPPGAELRQRLLKQLKELCDQIGKAYSTLVQKAALVIEPADQAVSLEPDTQRQATCITNLSDEGELWTTVYELNLGVQNLLMFIEDIRLLLLTQAQVPGPSVEENGLKTAGKGGCSPTELEGARFSDRLSSSNTHRFLEQLWDRYTP	soluble
MAIAKTDVLKFTTEVQPIGKQQYMELSKDIFVFSYLCGGINFTDIANLTNENIQNGRLHYIRQKTKKPIKIGIPQEAMQIIEKYSKESKGYLFPILDSKIHKTALQKQNRIHKILGKVNKNLKLLAAQLGVEANLTTYVARHSFASVLKKSGVNIALISEALGHSDLATTQIYLDSFDNEQVDEAMRNLLEHHHHHH	not soluble
